In experiment [1] the target is Ad5 hexon with DogTag inserted at HVR5, on Ad-DogTag virions (human adenovirus 5 (Ad5)) (UniProt P04133). In words: SDS-PAGE gel shift.
The target is the same in experiment [2]. Nature of the experiment: SDS-PAGE gel shift. The source holds these as a separate data set. For orientation: In EMSA bound probe runs differently from free probe, usually more slowly.

For 3 substances, percent of hexon covalently coupled and percent of hexon covalently coupled (% of hexon protein) results are on record in article PMC9364715.

Read-outs that look alike come from different tables or passages of the source.

On to DogCatcher-NANP9 (designed binder), for which the percent of hexon covalently coupled in experiment [1] was > 90 % of hexon.

For DogCatcher (designed binder), in experiment [1], the percent of hexon covalently coupled (% of hexon protein) was greater than 90.

For DogCatcher-NANP18 (designed binder), the percent of hexon covalently coupled in experiment [1] and in experiment [2] was > 90 % of hexon each time.
